In patent publication US20250270287A1 (KEROS THERAPEUTICS, published 2025):

T1: Activin A (UniProt P08476 311-426)
T1 sequence (looked up): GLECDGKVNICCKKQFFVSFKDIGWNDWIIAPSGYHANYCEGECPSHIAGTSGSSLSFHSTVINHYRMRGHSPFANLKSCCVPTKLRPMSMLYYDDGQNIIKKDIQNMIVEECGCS

T2: Activin B (UniProt P09529 293-407)
T2 sequence (looked up): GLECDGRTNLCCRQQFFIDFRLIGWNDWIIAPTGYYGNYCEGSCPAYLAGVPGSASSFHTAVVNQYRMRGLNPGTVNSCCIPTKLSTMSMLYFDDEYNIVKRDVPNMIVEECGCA

T3: GDF-11 (UniProt O95390 299-407)
T3 sequence (looked up): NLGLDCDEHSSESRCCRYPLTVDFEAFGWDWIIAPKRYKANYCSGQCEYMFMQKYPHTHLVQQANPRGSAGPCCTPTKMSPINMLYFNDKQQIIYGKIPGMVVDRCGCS

T4: BMP-9 (UniProt Q9UK05 320-429)
T4 sequence (looked up): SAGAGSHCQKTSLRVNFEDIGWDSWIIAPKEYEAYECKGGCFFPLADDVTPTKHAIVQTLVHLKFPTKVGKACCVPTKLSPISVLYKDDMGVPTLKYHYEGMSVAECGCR

T5: growth differentiation factor 8 (GDF-8) (UniProt O14793 267-375)
T5 construct: also called myostatin
T5 sequence (looked up): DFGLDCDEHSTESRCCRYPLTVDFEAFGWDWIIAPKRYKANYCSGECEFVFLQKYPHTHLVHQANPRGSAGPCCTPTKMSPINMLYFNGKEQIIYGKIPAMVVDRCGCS

T6: BMP-10 (UniProt O95393 317-424)
T6 sequence (looked up): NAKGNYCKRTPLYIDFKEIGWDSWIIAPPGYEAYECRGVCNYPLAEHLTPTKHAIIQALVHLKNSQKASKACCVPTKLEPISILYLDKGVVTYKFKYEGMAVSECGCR

B1: ActRIIB (SEQ ID NO: 31) Fc protein (Fc fusion)
chain: GRGEAETRECIYYNANWELERTNQSGLERCEGEQDKRLHCYASWRNSSGTIELVKKGCWLDDFNCYDRQECVATEENPQVYFCCCEGNFCNERFTHLPEAGGPEVTYEPPPTAPT
notes: also called ActRII-Fc; wild-type extracellular ActRIIB; not shown: linker (if any) and Fc domain
B2: ActRIIB-A7 (SEQ ID NO: 125) chimera-Fc protein (Fc fusion)
chain: GRGEAETRECIYYNANWELERTNQSGLERCEGEQDKRLHCYASWRNSSGTIELVKKGCWLDDFNCYDRQECVATEENPQVYFCCCEGNMCNERFTHLPEAGGPEVTYEPPPTAPT
notes: Tested as chimera-Fc protein; not shown: linker (if any) and Fc domain
B3: ActRIIB-B3 (SEQ ID NO: 112) chimera-Fc protein (Fc fusion)
chain: GRGEAETRECIYYNANWELERTNQSGLERCEGEQDKRRHCFATWKNISGTIELVKKGCWLDDFNCYDRQECVATEENPQVYFCCCEGNFCNERFTHLPEAGGPEVTYEPPPTAPT
notes: as for B2
B4: ActRIIB-B5 (SEQ ID NO: 114) chimera-Fc protein (Fc fusion)
chain: GRGEAETRECIYYNANWELERTNQSGLERCEGEQDKRLHCYASWRNSSGTIELVKKGCWLDDFNCYDRQECVEKEENPQVYFCCCEGNFCNERFTHLPEAGGPEVTYEPPPTAPT
notes: as for B2
B5: ActRIIB-A2 (SEQ ID NO: 121) chimera-Fc protein (Fc fusion)
chain: GRGEAETRECIYYNANWEKDRTNQSGLERCEGEQDKRLHCYASWRNSSGTIELVKKGCWLDDFNCYDRQECVATEENPQVYFCCCEGNFCNERFTHLPEAGGPEVTYEPPPTAPT
notes: as for B2
B6: ActRIIB-A6 (SEQ ID NO: 124) chimera-Fc protein (Fc fusion)
chain: GRGEAETRECIYYNANWELERTNQSGLERCEGEQDKRLHCYASWRNSSGTIELVKKGCWLDDFNCYDRQECVATKDSPEVYFCCCEGNFCNERFTHLPEAGGPEVTYEPPPTAPT
notes: as for B2
B7: ActRIIB-A5 (SEQ ID NO: 123) chimera-Fc protein (Fc fusion)
chain: GRGEAETRECIYYNANWELERTNQSGLERCEGEQDKRLHCYASWRNSSGTIELVKKGCWLDDINCYDRTDCVATEENPQVYFCCCEGNFCNERFTHLPEAGGPEVTYEPPPTAPT
notes: as for B2
B8: ActRIIB-A3 (SEQ ID NO: 122) chimera-Fc protein (Fc fusion)
chain: GRGEAETRECIYYNANWELERTNQSGLERCYGDKDKRLHCYASWRNSSGTIELVKKGCWLDDFNCYDRQECVATEENPQVYFCCCEGNFCNERFTHLPEAGGPEVTYEPPPTAPT
notes: as for B2
B9: ActRIIB-B1B7 (SEQ ID NO: 116) chimera-Fc protein (Fc fusion)
chain: GRGEAETRECLFFNANWELERTNQSGLERCEGEQDKRLHCYASWRNSSGTIELVKKGCWLDDFNCYDRQECVATEENPQVYFCCCEGNFCNEKFSYFPEAGGPEVTYEPPPTAPT
notes: as for B2
B10: ActRIIB-B1B4 (SEQ ID NO: 117) chimera-Fc protein (Fc fusion)
chain: GRGEAETRECLFFNANWELERTNQSGLERCEGEQDKRLHCYASWRNSSGSIEIVKQGCWLDDFNCYDRQECVATEENPQVYFCCCEGNFCNERFTHLPEAGGPEVTYEPPPTAPT
notes: as for B2
B11: ActRIIB-B7 (SEQ ID NO: 115) chimera-Fc protein (Fc fusion)
chain: GRGEAETRECIYYNANWELERTNQSGLERCEGEQDKRLHCYASWRNSSGTIELVKKGCWLDDFNCYDRQECVATEENPQVYFCCCEGNFCNEKFSYFPEAGGPEVTYEPPPTAPT
notes: as for B2
B12: ActRIIB-B2 (SEQ ID NO: 111) chimera-Fc protein (Fc fusion)
chain: GRGEAETRECIYYNANWELERTNQTGVEPCEGEQDKRLHCYASWRNSSGTIELVKKGCWLDDFNCYDRQECVATEENPQVYFCCCEGNFCNERFTHLPEAGGPEVTYEPPPTAPT
notes: as for B2
B13: ActRIIB-A1 (SEQ ID NO: 120) chimera-Fc protein (Fc fusion, not shown: a dimerising Fc or GST)
chain: GAILGRSETQECIYYNANWELERTNQSGLERCEGEQDKRLHCYASWRNSSGTIELVKKGCWLDDFNCYDRQECVATEENPQVYFCCCEGNFCNERFTHLPEAGGPEVTYEPPPTAPT

How the values were obtained:
Activin A [1] = target: T1, Activin A; test: SPR (Biacore 8K), Fc protein captured on anti-human IgG, ligand injected
Protocol: (§1) The Cytiva Biacore 8k was used to measure the kinetics of the interactions between the ActRII- and chimera-Fc proteins and Activin A/Activin B/growth differentiation factor 8 (GDF-8)/GDF-11/BMP-9/BMP-10. Series S CM4 Sensor Chips were immobilized with anti-human capture antibody using the reagents and protocol in the Biacore Human Antibody Capture Kit (GE Life Sciences). Briefly, anti-human IgG was diluted to 25 μg/mL in immobilization buffer. The carboxylated surface of the sensor was activated by injecting a mixture of EDC and NHS. The anti-human IgG was injected into the activated sensor chip flow cells at 10 μL/min for a total of 7 minutes until the chip reached an immobilization level of 3000 resonance units (RU). Ethanolamine was injected to deactivate the sensor surfaces. The chip has 8 flow cells to be used for binding analysis, each with an in-line reference surface to subtract instrument noise and non-specific binding to the sensor chip. The ActRII- and chimera-Fc proteins were captured in their own flow cell to allow for a maximum analyte binding response of 20-30 RU. This was done by injecting 10-20 μL of the ActRII- and chimera-Fc proteins into the flow cells at a concentration of 2 μg/mL until 60-90 RU was captured. Ligand at a single concentration was injected at […] for 60 seconds and then allowed to dissociate under buffer flow for no less than 5 minutes. After the cycle completed, captured protein was stripped from the chip with an injection of 3 M magnesium chloride, the regeneration buffer provided with the Biacore Human Antibody Capture Kit. Each ligand was injected in a concentration series, including a buffer only 0 nM concentration to serve as a double reference for subtracting out instrument noise. The data were analyzed using the Biacore Insight Evaluation Software.

Activin B [2] = target: T2, Activin B; test: as above
Protocol: as §1

Activin A [3] = target: T1, Activin A; test: cell-based or functional assay
Activin B [4] = target: T2, Activin B; test: cell-based or functional assay
GDF-11 [5] = target: T3, GDF-11; test: cell-based or functional assay
BMP-9 [6] = target: T4, BMP-9; test: cell-based or functional assay
[7] = target: T5, growth differentiation factor 8 (GDF-8); test: SPR (Biacore 8K), Fc protein captured on anti-human IgG, ligand injected
Protocol: as §1

GDF-11 [8] = target: T3, GDF-11; test: as above
Protocol: as §1

BMP-9 [9] = target: T4, BMP-9; test: as above
Protocol: as §1

BMP-10 = target: T6, BMP-10; test: as above
Protocol: as §1

Binder | Kd (Activin A [1]) | Kd (Activin B [2]) | IC50, SBE-luciferase reporter in HEK293 cells (Activin A [3]) | IC50, SBE-luciferase reporter in HEK293 cells (Activin B [4]) | IC50, SBE-luciferase reporter in HEK293 cells (GDF-11 [5]) | IC50, BRE-luciferase reporter in C2C12 cells (BMP-9 [6]) | Kd [7] | Kd (GDF-11 [8]) | Kd (BMP-9 [9]) | Kd (BMP-10)
B1 | 10.6 pM | < 1 pM | – | – | – | – | – | – | – | –
B2 | 16.9 pM | < 1 pM | 0.057 µg/mL | 0.073 µg/mL | 0.13 µg/mL | 0.061 µg/mL | < 1 pM | < 1 pM | 19.1 pM | 8.72 pM
B3 | 1.52 pM | 5.81 pM | 0.07 µg/mL | 0.096 µg/mL | 0.14 µg/mL | 0.41 µg/mL | 10.4 pM | 1.17 pM | 361 pM | 175 pM
B4 | 3.27 pM | 15.8 pM | 0.069 µg/mL | 0.11 µg/mL | 0.096 µg/mL | 0.022 µg/mL | 10.2 pM | < 1 pM | 63.2 pM | 41.4 pM
B5 | 34.7 pM | 8.78 pM | 0.078 µg/mL | 0.13 µg/mL | 0.3 µg/mL | 0.082 µg/mL | 39.3 pM | < 1 pM | 16.6 pM | 29.8 pM
B6 | 10.4 pM | 1 pM | 0.089 µg/mL | 0.14 µg/mL | 0.25 µg/mL | 0.23 µg/mL | 28.8 pM | < 1 pM | 9.62 pM | 9.69 pM
B7 | 22.8 pM | 4.91 pM | 0.057 µg/mL | 0.072 µg/mL | 0.13 µg/mL | 0.4 µg/mL | 16.5 pM | 5.66 pM | 143 pM | 15.2 pM
B8 | 16.5 pM | < 1 pM | 0.056 µg/mL | 0.075 µg/mL | 0.15 µg/mL | 0.1 µg/mL | < 1 pM | < 1 pM | 12.3 pM | 15.9 pM
B9 | < 1 pM | < 1 pM | 0.094 µg/mL | 0.18 µg/mL | 0.14 µg/mL | 0.067 µg/mL | 3.53 pM | < 1 pM | 18600 pM | 15.6 pM
B10 | 10.8 pM | 70.2 pM | 0.35 µg/mL | 0.34 µg/mL | 0.77 µg/mL | 0.39 µg/mL | 71.8 pM | 29.2 pM | 39.8 pM | 76.1 pM
B11 | < 1 pM | < 1 pM | 0.067 µg/mL | 0.12 µg/mL | 0.15 µg/mL | 0.032 µg/mL | 3.46 pM | < 1 pM | 20.2 pM | < 1 pM
B12 | < 1 pM | 11.6 pM | 0.14 µg/mL | 0.17 µg/mL | 0.27 µg/mL | 0.3 µg/mL | < 1 pM | < 1 pM | 3.27 pM | 20.5 pM
B13 | – | – | 0.075 µg/mL | 0.072 µg/mL | 0.14 µg/mL | 0.14 µg/mL | – | – | – | –
